The labels stand for the following.
B1: HDV Ribozyme (parent)
chain: GGCCGGCAUGGUCCCAGCCUCCUCGCUGGCGCCGGCUGGGCAACAUUCCGAGGGGACCGUCCCCUCGGUAAUGGCGAAUGGGACCCA

This data set covers variants of B1. In words: self-cleavage, relative activity (ratio to wild type); higher = more cleavage; co-transcriptional.
Take U46G G55U: the self-cleavage is 0.569.
Take C4U C64A: the self-cleavage was 0.639.
C18A U65C: the self-cleavage stood at 0.101.
With C36G G38U, the self-cleavage is 0.199.
The value for G59U U72A was 0.665.
As for C48G U72C, the self-cleavage turned out to be 0.449.
As to G38U G76C, the self-cleavage came to 0.228.
C18A A71U: the self-cleavage amounted to 0.
On to U46G C49G, for which the self-cleavage is 0.465.
On to A56G U79C, for which the self-cleavage came out at 0.242.
As for C26U G34A, the self-cleavage was found to be 0.36.
The same measure for G28C U72A: 0.151; for A56U U65C: 1.04.
For the variant G59U U65C, the self-cleavage worked out at 1.15.
For G11C G50A, the self-cleavage was 0.271.
For the variant U23G C85U, the self-cleavage came out at 0.898.
Regarding U9C A83C, the self-cleavage was found to be 0.475.
Consider G29C U37C, for which the self-cleavage is 0.0898.
As to A8C G31U, the self-cleavage is 0.214.
Take U12C C33U: the self-cleavage was determined as 0.32.
Consider A43C A78U, for which the self-cleavage was 0.0415.
As to G34A A77U, the self-cleavage stood at 0.0339.
The same measure for A78G C84G: 0.185.
Turning to U27A C44U, the self-cleavage was determined as 0.482.
On to C64A U79A, for which the self-cleavage worked out at 0.796.
For U27C G81U, the self-cleavage is 0.475.
Regarding G82A C86G, the self-cleavage came out at 0.279.
The same measure for C18G C21A: 0; for C21U G25C: 0.119; for C75U A77U: 0.374.
U37G G54A: the self-cleavage was 0.0755.
The same measure for U69C G73A: 0.653; for C3A U69C: 0.665; for U20A C33A: 0.
Regarding G39C A78C, the self-cleavage stood at 0.125.
Turning to C63G C86U, the self-cleavage is 0.816.
The same measure for A8U U20G: 0.166; for C33G C85G: 0.151; for G25U C64A: 0.151.
On to G34C C84U, for which the self-cleavage turned out to be 0.217.
On to U69G C86A, for which the self-cleavage was found to be 0.917.
For G38C C49A, the self-cleavage is 0.237.
On to C15U A43U, for which the self-cleavage came out at 0.284.
The value for G73U C84U was 0.256; that for G35U C49U was 0.554; that for G34U G53C was 0.136.
The value for G25C G80A was 0.0744; that for A16C U23G was 0.688.
The value for G39C C57U was 0.345; that for C41U C48U was 1.02.
Turning to G35U A83G, the self-cleavage is 0.241.
In the case of A43U U69C, the self-cleavage amounted to 0.494.
The value for G2C C7A was 0.0268; that for C30A U60A was 0.692; that for C13U C30U was 0.261.
For the variant U37G G81C, the self-cleavage came out at 0.
In the case of G54C C62A, the self-cleavage was found to be 0.967.
Turning to G35A G81A, the self-cleavage came to 0.277.
With C18A U20A, the self-cleavage worked out at 0.0875.
Take U12C C62U: the self-cleavage came out at 0.348.
With G5U U69G, the self-cleavage was 0.485.
The value for C21G G53C was 0.0978.
Regarding U37C A87G, the self-cleavage stood at 1.09.
The value for A42U C86G was 0.519; that for A56C C63G was 0.608.
The same measure for G5U G6U: 0; for C3U U12C: 0.107; for U23G C63U: 0.469.
The value for A8C G40C was 0.242.
For the variant C22U C64G, the self-cleavage stood at 0.751.
The same measure for G25A G29A: 0.0567; for G34C C36A: 0.0707.
As to G11C G80U, the self-cleavage is 0.0621.
Consider G1C G81C, for which the self-cleavage was 0.119.
The same measure for U37G A70C: 0.312; for C36G C85U: 0.151.
In the case of C44G G52U, the self-cleavage was found to be 0.727.
The value for G5U C62G was 0.346.
The same measure for A8G G81C: 0.115.
The same measure for G34U C36G: 0.0302; for C24A A42C: 0.0639.
On to G67U G81U, for which the self-cleavage worked out at 0.155.
Regarding A8G C19U, the self-cleavage worked out at 0.104.
Consider C75A G82U, for which the self-cleavage was 0.101.
U20C G55C: the self-cleavage was 0.0791.
Turning to A42U C48G, the self-cleavage is 0.646.
The value for C3A A16U was 0.318.
The same measure for G52C U65G: 1.04; for C48A A56C: 1.18; for C57G U79C: 0.598.
As for G35A C62U, the self-cleavage was determined as 0.665.
On to C32A U46G, for which the self-cleavage amounted to 0.138.
The same measure for C19A U47A: 0.0554; for U60C A87C: 1.05; for C62G G76C: 0.937.
Consider G39U G80C, for which the self-cleavage was found to be 0.181.
For the variant U12G G40U, the self-cleavage was 0.655.
The same measure for C48U G80A: 0.297.
The value for A56C U65G was 0.985; that for G25C G54C was 0.138; that for A16U C85A was 1.1.
In the case of A45U C66G, the self-cleavage is 0.919.
The value for A16G A77G was 0.831; that for A43U A70U was 0.59; that for C7A U9A was 0.431.
Regarding C32U C84A, the self-cleavage amounted to 0.753.
The value for C19A C62U was 0.111.
The value for A56G U69G was 0.831; that for G55U G59U was 1.02; that for C21U C64G was 0.364.
G40C U72G: the self-cleavage is 0.158.
Turning to C14G C64G, the self-cleavage came out at 0.485.
As for G25U A83C, the self-cleavage came out at 0.0386.
Turning to C4U C26G, the self-cleavage came to 0.72.
As to G28A C33U, the self-cleavage was determined as 0.0234.
The value for G31C C49A was 0.415.
In the case of G10A C44G, the self-cleavage worked out at 0.415.
The value for G39U A51U was 0.611; that for A77G U79C was 0.443; that for U23G G74C was 0.188.
With U60C G82U, the self-cleavage worked out at 0.495.
Turning to C32G G38U, the self-cleavage is 0.089.
The same measure for C36A G59C: 0.0978.
For G6A G55A, the self-cleavage is 0.712.
As for A78C A83G, the self-cleavage was found to be 0.179.
For C18G U37G, the self-cleavage was 0.0692.
Take G1U G29A: the self-cleavage was determined as 0.336.
For the variant C32G C36A, the self-cleavage was 0.125.
In the case of C13U C24U, the self-cleavage turned out to be 0.262.
Turning to C4G G55A, the self-cleavage worked out at 0.305.
The same measure for C15A G35U: 0.188.
The same measure for U9C A43G: 0.755; for U12A A83C: 0.35.
Consider C15U A70U, for which the self-cleavage turned out to be 0.831.
Consider C44G G67C, for which the self-cleavage turned out to be 0.755.
The value for C61A G82C was 0.228.
The value for C3G C61U was 0.729.
As to C13U A70G, the self-cleavage is 0.475.
The same measure for U69A: 0.977; for C58G C64U: 1.08; for A8C U72C: 0.185.
In the case of C15G A42G, the self-cleavage turned out to be 0.166.
Regarding C3A C26U, the self-cleavage amounted to 0.853.
In the case of C21U U69A, the self-cleavage turned out to be 0.148.
The value for C48U G68C was 0.959.
Take G2U G28C: the self-cleavage turned out to be 0.0234.
As for U27G C61G, the self-cleavage was found to be 0.86.
As for C22U G80A, the self-cleavage was 0.113.
Regarding C14G G80U, the self-cleavage was 0.261.
The value for G11U G39U was 0.0936; that for G6C G17U was 0.237.
In the case of G40A C61U, the self-cleavage was determined as 0.765.
As for U69C C84G, the self-cleavage worked out at 0.875.
The same measure for G10C G80U: 0.219; for G29A G34C: 0.148; for G39U G40U: 0.451.
Consider C3A C22U, for which the self-cleavage was determined as 0.15.
For the variant G39C C66U, the self-cleavage came to 0.136.
Take G38A G59U: the self-cleavage came to 0.182.
The same measure for G1A G17C: 0.107.
With C48U C64A, the self-cleavage is 0.554.
C61A A77G: the self-cleavage stood at 1.03.
In the case of G52U U60A, the self-cleavage was determined as 1.05.
Take C32G C75A: the self-cleavage came to 0.154.
With G80C C86U, the self-cleavage worked out at 0.3.
With C49U G81A, the self-cleavage worked out at 0.378.
For G67A, the self-cleavage came to 0.967.

(Values after the RNAGym collection of RNA variant scans (doi:10.7554/elife.80360).)
